Data as given in US20050136043A1, “TGFbeta signaling inhibitors” (Ludwig Institute for Cancer Research, priority 2003, published 2005).

How the values were obtained:
[1] = test system: phosphorylation of endogenous Smad2 by TβR-I in Mv1Lu cells; experiment: TGFβ1-dependent phosphorylation of endogenous Smad2 in Mv1Lu cells (pS2 immunoblot); assay type: cell-based; conditions: Mv1Lu cells pretreated with peptide, 15 min TGFβ1, FIG. 6A
GST-TβR-I [2] = molecular target: T1, GST-TβR-I (Homo sapiens, UniProt P36897, T204D); experiment: GST-TβR-I autophosphorylation assay; assay type: biochemical; conditions: peptides at 1 and 10 μM, FIG. 4A
T1 construct: the complete cytoplasmic part (amino acid residues 148-503) of constitutively active TβR-I (T204D) FLAG-tagged at the C-terminus; made in house; host or cells: E. coli
T1 sequence (P36897 148-503 T204D): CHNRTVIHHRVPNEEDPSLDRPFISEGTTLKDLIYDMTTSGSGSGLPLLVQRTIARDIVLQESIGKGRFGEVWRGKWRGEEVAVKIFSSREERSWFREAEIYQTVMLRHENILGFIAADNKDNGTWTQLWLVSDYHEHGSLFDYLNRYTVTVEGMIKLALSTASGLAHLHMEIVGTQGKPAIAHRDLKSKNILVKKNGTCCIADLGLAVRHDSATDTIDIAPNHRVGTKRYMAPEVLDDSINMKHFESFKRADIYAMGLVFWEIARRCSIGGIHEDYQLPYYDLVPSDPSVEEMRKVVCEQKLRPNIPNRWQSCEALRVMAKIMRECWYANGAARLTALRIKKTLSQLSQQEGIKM
Procedure: (§1) In vitro kinase assay: GST-TβRI activity was assayed in vitro using the known TβR-I substrates GST-Smad3deltaMH1, GST-Smad2; GST-Smad1 was used as a control for specificity. The reaction mixture (20 μl) contained 20 mM HEPES (pH 7.4), 10 mM MgCl2, 2 mM MnCl2, 1 mM dithiothreitol (DTT), 5 μM ATP plus 0.5 μCi [γ^32P]ATP (Redivue, Amersham Biosciences), and inhibitors at different concentrations. The reaction was initiated by an addition of 0.02 μg purified GST-TβRI, followed by incubation at 22° C. for 20 min. Reaction was terminated by addition of 5 μl of 5× SDS-sample buffer. Samples were subjected to SDS-PAGE followed by analysis in a FujiX2000 phosphorimager. For all in vitro enzyme assays, the percent inhibition was calculated as 100×(1-Ai/A0), where Ai and A0 are levels of GST-Smad phosphorylation in the presence and absence of inhibitors, respectively. […] Phosphorylated GST-Smad3deltaMH1 and autophosphorylated GST-TβRI were analyzed by tryptic phosphopeptide mapping, as described previously.
A GST-TβR-I autophosphorylation assay was performed in the absence or presence of antp-Sm2S (SEQ ID NO:3), antp-Sm2A (SEQ ID NO:2) and antp-Sm5A (SEQ ID NO:4) peptides at concentrations of 1 and 10 μM, as indicated (FIG. 4A).

GST-TβR-I [3] = molecular target: T1, GST-TβR-I; experiment: Phosphorylation of GST-Smad2 by GST-TβR-I, in vitro kinase assay; assay type: biochemical; conditions: for Inhibition of phosphorylation at the C-terminus of GST-Smad2: FIG. 4B; for Concentration at which effect of Sm2 peptides was observed / Concentration of maximal inhibition: in vitro kinase assay; for Concentration of maximal inhibition: data not shown
Procedure: as §1
Phosphorylation of GST-Smad2 by GST-TβR-I was performed in an in vitro kinase assay (FIG. 4B). The peptides were added as indicated.

SAPKR2 = SAPKR2 (Homo sapiens, UniProt P45984); experiment: In vitro kinase assay of kinase expressed in COS-7 cells; assay type: biochemical; conditions: 10 μM peptide, FIG. 5
Procedure: (§2) For in vitro kinase assay of type I and type II TGFβ family receptors, p38α and SAPKα2 kinases, COS-7 cells were transfected with the kinase expression vectors or the control empty pcDNA3 vector using the DEAE-dextran method. Proteins were extracted in a lysis buffer (50 mM Tris-HCl, pH 7.5, 50 mM NaCl, 1% NP-40, 10 μg/mL aprotinin, 0.1 mM PMSF). HA-tagged proteins (ALK1 to ALK7, p38R, SAPKR2) were immunoprecipitated with anti-HA antibody (12CA5; Roche); His6-tagged proteins (type II receptors) were precipitated with Ni-NTA agarose (Qiagen). The precipitates were washed in extraction buffer, with 20 mM imidazole for Ni-NTA agarose-precipitated proteins, and two times with kinase buffer (20 mM HEPES, pH 7.4, 10 mM MgCl2, 2 mM MnCl2, 1 mM DTT). The kinase reaction was initiated by addition of 20 μL of kinase buffer containing 0.5 μCi of [γ-32P]ATP, 5.0 μM ATP, and inhibitory peptides at a final concentration of 10 μM. The reaction was performed at 22° C. for 20 min and terminated by addition of SDS-containing sample buffer and boiling for 5 min. The reaction products were analyzed by SDS-PAGE and exposure in a Fuji X2000 phosphorimager. Equal loading was controlled by immunoblotting aliquots of the samples with a HA probe (Y-11; Santa Cruz) or anti-His antibody (Qiagen).
(§3) To evaluate whether the substrate-mimicking peptides affect kinases of type I and type II reptors of the TGFβ family, we studied the influence of peptides on authophosphorylation of all known mammalian type I receptors [ALK-1, ActR-I (ALK-2), BMPR-IA (ALK-3), ActR-IB (ALK-4), TβR-I (ALK-5), BMPR-IB (ALK-6), and ALK-7], TβRII, ActR-II, BMPR-II, p38R, and SAPKR2 (FIG. 5). The kinases were expressed in COS-7 cells and purified by using specific anti-tag antibodies or Ni-NTA agarose, and kinase activity was tested in the presence of peptides.

p38R = p38R (Homo sapiens, UniProt Q16539); experiment: as above; assay type: biochemical; conditions: 10 μM peptide, FIG. 5
p38R, sequence (Q16539 whole entry): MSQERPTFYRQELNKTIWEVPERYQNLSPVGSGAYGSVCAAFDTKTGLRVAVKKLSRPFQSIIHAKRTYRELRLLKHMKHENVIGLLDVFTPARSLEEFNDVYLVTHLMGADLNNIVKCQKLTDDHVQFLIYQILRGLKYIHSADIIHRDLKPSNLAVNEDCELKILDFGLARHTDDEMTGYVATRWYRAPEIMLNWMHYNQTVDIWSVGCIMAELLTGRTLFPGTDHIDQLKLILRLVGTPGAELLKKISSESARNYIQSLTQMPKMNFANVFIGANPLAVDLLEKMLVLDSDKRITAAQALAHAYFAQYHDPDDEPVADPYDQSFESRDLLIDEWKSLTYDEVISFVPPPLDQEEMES
Procedure: as §2, §3

[4] = molecular target: T2, constitutively active TβR-I (Homo sapiens, UniProt P36897, T204D); experiment: In vitro kinase assay with immunoprecipitated constitutively active TβR-I expressed in Mv1Lu cells; assay type: biochemical; conditions: immunoprecipitated from Mv1Lu cells, data not shown
T2 construct: made in house; host or cells: Mv1Lu cells (expressed, immunoprecipitated)
T2 sequence (P36897 34-503 T204D): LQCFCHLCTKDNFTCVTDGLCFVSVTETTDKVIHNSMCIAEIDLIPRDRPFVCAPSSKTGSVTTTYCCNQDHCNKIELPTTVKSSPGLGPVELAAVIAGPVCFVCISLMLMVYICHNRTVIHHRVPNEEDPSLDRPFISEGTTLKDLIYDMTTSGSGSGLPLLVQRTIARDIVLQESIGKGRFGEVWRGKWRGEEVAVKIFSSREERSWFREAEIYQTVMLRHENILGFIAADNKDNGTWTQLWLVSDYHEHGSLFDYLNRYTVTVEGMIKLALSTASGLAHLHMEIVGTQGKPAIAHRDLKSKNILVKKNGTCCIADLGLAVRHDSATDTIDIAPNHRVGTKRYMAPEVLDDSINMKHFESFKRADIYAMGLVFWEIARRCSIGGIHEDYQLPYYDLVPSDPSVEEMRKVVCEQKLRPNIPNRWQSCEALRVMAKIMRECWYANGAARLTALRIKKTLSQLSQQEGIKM

[5] = test system: TGFβ1-dependent stimulation of ARE-luc in Mv1Lu cells; experiment: ARE-luc luciferase reporter assay (Smad2-responsive element) in Mv1Lu cells; assay type: cell-based; conditions: peptide 50 μM, TGFβ1 10 ng/ml, 18 hours

| Sequence | Effect of peptides on TGFβ1-dependent phosphorylation of endogenous Smad2 [1] | Inhibition of autophosphorylation of GST-TβR-I (GST-TβR-I [2]) | Inhibition of phosphorylation at the C-terminus of GST-Smad2 (GST-TβR-I [3]) | Concentration at which effect of Sm2 peptides was observed (GST-TβR-I [3]) [µM] | Concentration of maximal inhibition (GST-TβR-I [3]) [µM] | Effect on SAPKR2 kinase (SAPKR2) | Effect on p38R kinase (p38R) | Inhibition of autophosphorylation of TβR-I [4] | Effect on TGFβ1-dependent stimulation of ARE-luc [5] | Inhibition of TGFβ1-dependent phosphorylation of endogenous Smad2 compared to nontreated cells [1] [%] | Inhibition of TGFβ1-dependent stimulation of ARE-luc [5] |
| --- | --- | --- | --- | --- | --- | --- | --- | --- | --- | --- | --- |
| RQIKIWFQNRRMKWKKTQMGSPSVRCSSMS (listed as Homo sapiens) [antp-Sm2S, penetratin fused to the C-terminus of wild-type Smad2] | weaker affect | inhibited autophosphorylation | less pronounced | 10 | 200 | without any effect | without any effect | inhibited autophosphorylation | no effect | – | – |
| RQIKIWFQNRRMKWKKTQMGSPSVRCSAMA (listed as Homo sapiens) [antp-Sm2A] | – | had a stronger effect | inhibited | 10 | 200 | without any effect | without any effect | inhibited autophosphorylation | – | 67 | up to 31% |
